Molecular target: the molecule itself
Experiment: SEC; Superdex 75 HR 10/30, PBS as mobile phase, room temperature, 1.0 mL/min, 50 ug/500 uL purified TrxIA-2ic injected; calibration with globular standards; eluted fractions identified by western blot with rabbit serum to IA-2

B1: intracellular domain of IA-2 fused to thioredoxin (TrxIA-2ic) (domain or fragment, human, UniProt Q16849 604-979, looked up)
chain: ARQQDKERLAALGPEGAHGDTTFEYQDLCRQHMATKSLFNRAEGPPEPSRVSSVSSQFSDAAQASPSSHSSTPSWCEEPAQANMDISTGHMILAYMEDHLRNRDRLAKEWQALCAYQAEPNTCATAQGEGNIKKNRHPDFLPYDHARIKLKVESSPSRSDYINASPIIEHDPRMPAYIATQGPLSHTIADFWQMVWESGCTVIVMLTPLVEDGVKQCDRYWPDEGASLYHVYEVNLVSEHIWCEDFLVRSFYLKNVQTQETRTLTQFHFLSWPAEGTPASTRPLLDFRRKVNKCYRGRSCPIIVHCSDGAGRTGTYILIDMVLNRMAKGVKEIDIAATLEHVRDQRPGLVRSKDQFEFALTAVAEEVNAILKALPQ
notes: insulinoma associated protein tyrosine phosphatase 2 (IA-2), human, intracellular domain IA-2ic, residues 604 to 979 of the 979-residue protein; codon-optimised synthetic gene adapted from GenBank L18983.1; Thioredoxin was not removed; also called thioredoxin-fused insulinoma associated protein tyrosine phosphatase 2; not shown: thioredoxin (E. coli), N-terminal, kept
  stoichiometry N: 2

— publication PMC5122161, “Novel prokaryotic expression of thioredoxin-fused insulinoma associated protein tyrosine phosphatase 2 (IA-2), its characterization and immunodiagnostic application” (BMC Biotechnology, 2016)
